Data: the supplement of paper PMC12636428

System: Saccharomyces cerevisiae
Test: transcriptional activation domain activity (GFP:mCherry ratio, weighted mean of sorted bins, harmonized to initial dataset scale) (arbitrary fluorescence ratio units); higher = stronger transcriptional activation
Conditions: beta-estradiol 1 µM; induction time 4 h
In short: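 Values are activation activity, found as the read-weighted mean of bin median fluorescence, averaged across barcodes and then mapped linearly onto the initial dataset scale. Barcoded protein tiles fused to an estradiol-inducible synthetic transcription factor were integrated at the URA3 locus of GFP-reporter yeast diploids. Cells were induced for 4 hours at 30 °C with 1 uM beta-estradiol in SC, sorted into 8 bins by GFP:mCherry ratio, and barcode-sequenced, with tiles under 50 reads discarded.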

Row | Sequence | transcriptional activation domain activity
1 | VWEAVTTGFDGGFVPRTRDADAGTRRTGGSVRAEERKEKLRAWRVSRCWAVLA | 56500
2 | VWEMCLVVGMGSELDVLYRVNNTVFVGCFCLARLTIVLLFAMSMLYLPMFRRD | 61200
3 | VWFKIVWAWLYVFTSTWLLGVFLSYVKWWLLWVPWFLRSRVRCCVFLAILYIV | 73800
4 | VWIVIYISLSYLFSGVLESVILIYSWIRGFPVIQLLFPKCQVYMNGFLVLFVI | 61200
5 | VWVASKVEEDEASDYAAPEKQAKPKRQRGRPKKGGEDKSDVTSTAAAQESAAK | 24500
6 | VWVCGFLVVYLFYTWGVLSFVFFQMLINHLSFINLFFFYILSSFIGGLTLNFF | 51200
7 | VWVKTPWNLYALLLATLSHSLMIDPLLGVLLYYSSITWDPLYRILIFCIFAFW | 45400
8 | VYCELVSFLVLSSKKSDTKLLIQLERVARYISQLLFVESDAITMTSGISVLRP | 37500
9 | VYCQVLLNHKYRAYGGGYRAETIIYSFGRLSDLLYFVPVVVGRMEMRMGLTLK | 52200
10 | VYIFLTFFIATWWPLCLVNLFGWMLLYLFRGVFPEAIMLIFNVLSRVVTIHRI | 42000
11 | VYIGACWGHWAQLNVFLIPGLVVWFIDRGIRFARTALLHYNFLPSGHMGFRAA | 77700
12 | VYILSFYLPSLFPSFFTHSLFFFLHLWSCSTSSQTNMRLPTLAFISLPFVLTF | 53600
13 | VYILVSYFLLGPRCLILIASTFLLSYHSSWSIVTRRVLWRFKVVRLIFFYLTG | 61700
14 | VYIYAKTISIVLLTDIYIGKYTYILISLKLLARKKFYNILTNPIFCAHIRLVI | 55300
15 | VYKRKILVLIYKIAHLTDLYLEVANGGPKLRLHLSALSFHTCAWKSKGLSIPE | 35900
16 | VYLCNVNLSIFKSVLSWVGVCTALYGCITIMPIFRHDSPYHTPLSFLAWHIVI | 63600
17 | VYMLTMESKKLLLRHVIDKLPGFLPTDLSGVTFLADWIHMQTGRIKKGTFNIV | 59700
18 | VYPEKVIFAPFEIFVVLVSFFNLVLFLFCFPFTLYPPKRWLRIVVLLFLFFFC | 50400
19 | VYPENYETASVNTERDMELLVGHFDFMAKEAFLADSISLCSTEEELERRLDTP | 102000
20 | VYRRELDQNKGGLILIVRRTGNEVHCGVYITFGFMKQWKLYVKSLISITGQWH | 58500
21 | VYSYKKRMWHYFLFDLCYYVNIINLVYIWILPQSAWLFVACYCLSHGSVASAV | 58700

Row | Sequence | transcriptional activation domain activity
22 | VYTDLIRIIGDTKPILLDNYHNAMRRTMSVVIGFRVFYYHNEWHRAKGFIRKA | 38400
23 | VYTVMILSTIFGICYVPFGVFICDSLKAYPGEVTNCSHQMQNLATIFFILFSV | 57000
24 | VYVDNDGLPARSQWVLMYERMGEQGGMTLAARFVMFVDFLVQMVRLLSRSPLY | 34600
25 | VYYFWVRIFVFSFRSTCFCIFLFYYLYLFFLFIFLYLTSSFSSFHHLSLLLVV | 57800
26 | WAPLNVGLERRLQTFVVLCHTLTIPIFLTLFFFLCAIPLFWPLLIPYLIYILL | 34700
27 | WAQERGVYANVFGYPGGVAWAMLVARICQLYPNAVSAVVIRKFFQIYSQWKWP | 29700
28 | WARNARKNKSTEEASAQEQRRGAQVIVIHPGSRFLRIGKASEVSPVTVLNVVA | 55600
29 | WATVYLWTCHYQLLVYICTLIIIETRGFLKLGYVFLITLLLLSCIPHILLHVI | 30300
30 | WCVVLCMVLILPRLFYTILQMNDYNISPFNPNVNALYTSLLGYLPLLAVFIVM | 53800
31 | WDDILTPADNQHRPSLTNQFLSPRSNYDGTTRSSGIDSNYSDTESNYHTPYLY | 61600
32 | WDGGPTSKLTHVLLTYRQSILVTVYSHLLLLDHSSQVWWRWMNIFFTLVIWSI | 71000
33 | WDLLLGIQMSWDAVLDLWPRLWAWFEFLDTYSDILSSLLVYLSDADFSLIWVL | 62800
34 | WDMTLGGTINKTGVIGVIMIVIGFYLWFFLSCAVLIAMEGCSAMLHSLRLQWV | 31300
35 | WDWARRYHCLAWGGEVSLLSFLPLLPVCLLSWLCRVSPIKWALVAVFFFWLLG | 65900
36 | WEPPLYDSVGNHNHAGTMESHPHTNIHEELKEFLSGDLIEAEDNAKLMFGDDN | 55300
37 | WERIREKASILALAYRLGVLLFALHFLFCLSQPPRFARLFWLSFSLLVPSTFF | 59000
38 | WETIGTILYLFYVFTFLRLRFFLLLFYLYELTTMISLTIYIILYTLLFYFSCY | 41200
39 | WFAKFVVRLVYCLAWVRGQLLRRSSPIQTMMLALRCPHVLPWIDAGTPRLYIY | 54700
40 | WFRDMRFPYVPRAFSRLLKNLLVAVYVSLFNSCIFWFTSSRLHPQRRFIARYL | 64800
41 | WGFRVMSQLPTFWYRTEYFWIDYPHWDMKPELKRYYLMQMAYWLQQLIVLVLG | 92400
42 | WGLIIGLVGLNAALIYIGWRYYEVYYFLLVLLSSNTILQTFMCFCIMLHWFCT | 40400

Row | Sequence | transcriptional activation domain activity
43 | WGRKGRGKSPLYDFDVNEFDPQVLFSTGTRTVEFMDDQNQPSSASAFLSTARP | 49300
44 | WGTTFRDEGSRVRVLMRRLARMMRLGGRTPCQSDHISNVHFSAPADWQSTWGT | 48000
45 | WHIRCVLLLVAFLHICYQVSYCACGLILVCLNFIFVRQPGGLEMLLTLKTAFY | 57800
46 | WHTDLGIPSFGWTLLHELEGLLGRIEANWMEEVTVRTIVLLTSRLLSAVRDHD | 55200
47 | WHVAYPLVATGLCVAPQEFFLKHWLAFLREKGTRSFVLNGMLRLLWTYLYRCQ | 45800
48 | WIDTVLIVLFSNDVQIKHKLGRLIIDEWIQIKCPTRTCLLLKLLRKKLHNSLA | 33500
49 | WIIPTPFGSHAFHPVDGYFQSVPYHLFIFIFPLHRVLYLTLFVLVNFWSIFIH | 61100
50 | WIKWTFLFARYFPLLAGLCGRVIDSIVLYRNPIPIPLNALRIWYICQVLILHL | 78200
51 | WIPFTLSIIVVEIPYLLFFSTSLLCGIYWTAGLSNTPDAVGYFYLMIFFFIFW | 61600
52 | WIQCTIPGYVSNFAYGLASGFTVTLNTAVLMEIVFHSKSYRILILSLFTTLYV | 61400
53 | WIVALAIIVSDYYGVVKGGVAYGLLASSNTSMAVFIFVWHLGGIWMITMLACM | 65100
54 | WIVTHSHFIPTAEAGTTGEGMGEGEDRDPDTVRLAVRSLTICMRSANIAMLVG | 53600
55 | WKATKYLIGLWIQCFRDRGLIGPVGYRGHVHCVVRFCLCLIPKSHWQTIIVVT | 63500
56 | WKKTIQNKIKDSLTLSSKEKELLHLIEHGAEQTTENSNLFYDIFEEIIDSLPS | 112000
57 | WKPDIYTCVMRMLLDRLHSALGSLHARSIIRKIRILVALAGNVAYRGYPLQMT | 48900
58 | WLAHSKKKDCDVCKHPYSFNKVYSPDMPARLPPVLLLRHLAKQLFFTVLFSIR | 76900
59 | WLAHSKKKTCDVCKHPYSFTKVYATDMPSRLPPVLLLRRVAQQSFFAMLFAVR | 37900
60 | WLAHSKKKTCDVCKHPYSFTKVYATDMPTRLPPVLLLRRVAQQSFFAMIFAVR | 35900
61 | WLAHSKKKTCDVCKHPYSFTKVYATDMPTRLPPVLLLRRVAQQSFFAMLFAVR | 48100
62 | WLFCFICYPLPLHPISYQIAPPFYSIFFVILLTIVFFLLLFLFVSSFLYLRLG | 70000
63 | WLHKLPRATWAYPLYGIYYLLTNPALLSPLLSRIIPLLILSIFVLTFTFTFLY | 43800

Row | Sequence | transcriptional activation domain activity
64 | WLIKPEQNNGTWVADVLWPKLNLDLQWIASHWNQSSWDLWWPPVWGVLTGLPL | 67700
65 | WLILIRIINPIIMYFFVSCFYSLLSLAFQVPFNRFYGSSGFVIYWMMSWMAMC | 47100
66 | WLLCQVPTRNLGVLVFDSSKRYHLVHPDSPTGEQRHTQFVIVLFIVAFIRGVA | 47700
67 | WLLFLQEYGTITLTLLQSLEYWISNIDLTDESKSQLSKQGRACMYHLIVLTLR | 53700
68 | WLLQYMMLLGTLRRQSDKLVVKVGWYMANYLVPGIYVFQPRIVMKVLLLILRQ | 44500
69 | WLLSVYILGFLAFELASVLIAIRVVAIWRRARPVLVFVVVALLTQFSFIIYLS | 23300
70 | WLLTFFTVDFLPNRDLRILLANWLNTLIHDPILKKHTDGLGIVRRLVKVAKEC | 48400
71 | WLMYYIHATGDTKVSLPFNPSRVIKINMVLLSHLVAWINYLPLVVSYVHWRYW | 51000
72 | WLNGCFLLVGHIIFQLVMCYQLAQIIRGIVQMYGHLWISNDWHCLWITWLILF | 63600
73 | WLPFPESLGSSYRMPGIEPYVDFVMGRILAKKLPELLDSCQILMLRWKCLCFI | 63200
74 | WLPNWLVPVMTAFSWMTWIAPKHRDLNILTGFNNGMGLLNFWPTWDWNVLLFT | 54200
75 | WLRPPRWACGRRALLLLSMGLGTVMLLILTGLLTMNQSNGAKLPVVMVFVILF | 32600
76 | WLRVRKFTVTLATFVEPGTESILCGLYGAYALTTLPFFHNIGISSTWTSFFLI | 36600
77 | WLSDENDGASHINVNKDSSSVLSASSSTWFEPLENIISSASSSSIGSPIEDQF | 60800
78 | WLSHSKKKSCDVCKHPYSFTKVYAENMPPRLPVFLLLRKVVEQAFFTIVFSIR | 55100
79 | WLSHSKKKTCDVCKHPYSFTKVYAEDMPSRLPLVLLLRKLIEQVFYTALFCIR | 54100
80 | WLSHSQKKHCELCKTPFRFTKLYAPNMPKALPTHIFLSHMAKYILRNLLVWLR | 61200
81 | WLSHSQKKHCELCKTPFRFTKLYAPNMPKALPTHVFLSHVAKYILRNLLVWLR | 81200
82 | WLVKVYRLGPFSRDKRYGFAKLLGLKLNYDVKQVKQKPSFQLSMALALLNKCT | 64500
83 | WMIWFRVGFACIFSSCVFLRVYGLYRIFIQRKPFTRYSFYVPFTIFTVCVFIF | 69400
